Source: CN113278066A
Where two headings read alike, the source gives them in different places.

Tests used:
[1] = target: 非洲猪瘟病毒(ASFV)灭活抗原 (African swine fever virus)
[2] = target: 非洲猪瘟病毒(ASFV)灭活抗原 (African swine fever virus); remark: listed apart in the source
[3] = target: 非洲猪瘟病毒(ASFV)灭活抗原 (African swine fever virus); remark: listed apart in the source

B1: 全猪源非洲猪瘟病毒单克隆抗体 κ-9B (antibody, V domains shown)
VH: EGKLVESGGGLVQPGGSLRLSCVGSGFDFINTYMNWVRQAPGKGLEWLATISTKGISTYYADSVKGRFTISKDNSQNTADLLMRILRIEDTVRYFCAMSDSGGRNCVAGDSSCPHYYGMNLWGPGVEVVVSS
VL: AIQLTQSPASLAASLGDTVSVTCRASQSISSYLAWYQQQPGKAPKLLIVAASTLQSGVPSRFKGSGSGTDFTLTISGLQAEDVATYYCFQRNSVPWTFGQGTKLELKA
Work on B1 yielded an OD值 [1] of 1.91 OD450nm, an OD值 [2] of 0.733 OD450nm and an OD值 [3] of 0.717 OD450nm.
